B1: Complement factor H (Homo sapiens), P08603 (parent)
chain: MRLLAKIICLMLWAICVAEDCNELPPRRNTEILTGSWSDQTYPEGTQAIYKCRPGYRSLGNVIMVCRKGEWVALNPLRKCQKRPCGHPGDTPFGTFTLTGGNVFEYGVKAVYTCNEGYQLLGEINYRECDTDGWTNDIPICEVVKCLPVTAPENGKIVSSAMEPDREYHFGQAVRFVCNSGYKIEGDEEMHCSDDGFWSKEKPKCVEISCKSPDVINGSPISQKIIYKENERFQYKCNMGYEYSERGDAVCTESGWRPLPSCEEKSCDNPYIPNGDYSPLRIKHRTGDEITYQCRNGFYPATRGNTAKCTSTGWIPAPRCTLKPCDYPDIKHGGLYHENMRRPYFPVAVGKYYSYYCDEHFETPSGSYWDHIHCTQDGWSPAVPCLRKCYFPYLENGYNQNYGRKFVQGKSIDVACHPGYALPKAQTTVTCMENGWSPTPRCIRVKTCSKSSIDIENGFISESQYTYALKEKAKYQCKLGYVTADGETSGSITCGKDGWSAQPTCIKSCDIPVFMNARTKNDFTWFKLNDTLDYECHDGYESNTGSTTGSIVCGYNGWSDLPICYERECELPKIDVHLVPDRKKDQYKVGEVLKFSCKPGFTIVGPNSVQCYHFGLSPDLPICKEQVQSCGPPPELLNGNVKEKTKEEYGHSEVVEYYCNPRFLMKGPNKIQCVDGEWTTLPVCIVEESTCGDIPELEHGWAQLSSPPYYYGDSVEFNCSESFTMIGHRSITCIHGVWTQLPQCVAIDKLKKCKSSNLIILEEHLKNKKEFDHNSNIRYRCRGKEGWIHTVCINGRWDPEVNCSMAQIQLCPPPPQIPNSHNMTTTLNYRDGEKVSVLCQENYLIQEGEEITCKDGRWQSIPLCVEKIPCSQPPQIEHGTINSSRSSQESYAHGTKLSYTCEGGFRISEENETTCYMGKWSSPPQCEGLPCKSPPEISHGVVAHMSDSYQYGEEVTYKCFEGFGIDGPAIAKCLGEKWSHPPSCIKTDCLSLPSFENAIPMGEKKDVYKAGEQVTYTCATYYKMDGASNVTCINSRWTGRPTCRDTSCVNPPTVQNAYIVSRQMSKYPSGERVRYQCRSPYEMFGDEEVMCLNGNWTEPPQCKDSTGKCGPPPPIDNGDITSFPLSVYAPASSVEYQCQNLYQLEGNKRITCRNGQWSEPPKCLHPCVISREIMENYNIALRWTAKQKLYSRTGESVEFVCKRGYRLSSRSHTLRTTCWDGKLEYPTCAKR

Variants of: B1
Conditions: with ptx3_human PTX3, P26022
ptx3_human PTX3, P26022, sequence (P26022 whole entry): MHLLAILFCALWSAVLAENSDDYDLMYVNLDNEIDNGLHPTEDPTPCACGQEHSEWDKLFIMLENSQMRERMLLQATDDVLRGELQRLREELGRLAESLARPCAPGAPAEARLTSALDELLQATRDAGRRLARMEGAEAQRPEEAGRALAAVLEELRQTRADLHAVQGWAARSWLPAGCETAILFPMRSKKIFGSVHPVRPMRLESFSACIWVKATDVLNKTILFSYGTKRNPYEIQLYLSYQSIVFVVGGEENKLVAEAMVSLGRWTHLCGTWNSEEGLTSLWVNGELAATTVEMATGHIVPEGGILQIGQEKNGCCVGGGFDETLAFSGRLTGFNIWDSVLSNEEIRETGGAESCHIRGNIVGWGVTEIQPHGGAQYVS

effect of a mutation on the interaction | Variant
with no effect | Y402H
